This is an account of results in patent US12258384B2, “Fusion albumin nanoparticle and application thereof” (Jiangnan University, priority 2019, dated 2025).

Data set [1] is described as follows: Loading of paclitaxel with recombinant fusion protein (pH response self-assembly), drug loading rate. It counts as physicochemical. Particulars: 1 mg/ml protein, mixed at pH 5.5 with 10 mg/mL paclitaxel solution, then pH 7.4. As for the experimental part: Albumin fusion protein powder freeze-dried by a freeze dryer was dissolved in a PBS buffer solution to prepare a 1 mg/ml solution, the pH was adjusted to 5.5 with a 1 mM HCl solution, after a 10 mg/mL paclitaxel solution was added, the pH was adjusted to 7.4 with a 1 mM NaOH solution, centrifugation was performed at 10000 rpm for 20 minutes, an obtained precipitate was uniformly mixed with ultrapure water and then centrifuged at 1000 rpm for 20 minutes, and the steps above were repeated 3 times to obtain a paclitaxel-loaded fusion protein nanoparticle.
A final drug loading rate was directly affected by a mixing ratio of albumin to a drug (for example, paclitaxel): Fusion albumin powder freeze-dried by a freeze dryer was dissolved in a PBS buffer solution to prepare a 1 mg/ml solution, the pH was adjusted to 5.5 with a 1 mM HCl solution, after a drug solution with a concentration of 5 mg/ml, 8 mg/ml, 12 mg/mL and 15 mg/ml was separately added, the pH was adjusted to 7.4 with a 1 mM NaOH solution, centrifugation was performed at 10000 rpm for 20 minutes, an obtained precipitate was uniformly mixed with ultrapure water and then centrifuged at 1000 rpm for 20 minutes, and the steps above were repeated 3 times to obtain a paclitaxel-loaded fusion protein nanoparticle. […]

A short description of data set [2]: Loading of docetaxel with recombinant fusion protein, drug loading rate. Particulars: 1 mg/mL protein, mixed at pH 5.5 with 10 mg/ml docetaxel solution, then pH 7.4. It counts as physicochemical. As for the experimental part:
Albumin fusion protein powder freeze-dried by a freeze dryer was dissolved in a PBS buffer solution to prepare a 1 mg/mL solution, the pH was adjusted to 5.5 with a 1 mM HCl solution, after a 10 mg/ml docetaxel solution was added, the pH was adjusted to 7.4 with a 1 mM NaOH solution, centrifugation was performed at 10000 rpm for 20 minutes, an obtained precipitate was uniformly mixed with ultrapure water and then centrifuged at 1000 rpm for 20 minutes, and the steps above were repeated 3 times to obtain a fusion protein nanoparticle.

With “RH: albumin fusion protein 3RGD-HSA, without His fusion”, in data set [1], the “drug loading rate (paclitaxel)” value is listed as 6.38%. Besides, the “drug loading rate (docetaxel)” value in data set [2] is on record as 7.08%.
